Assay results taken from article PMC9615034.
Where “and” joins values, the source holds several entries; their conditions need not be identical. Equal entries are not always repeated. Where two headings read alike, the source gives them in different places.

Key:
[1] = target: Myeloperoxidase (native) (Homo sapiens) (UniProt P05164); experiment: SPR; conditions: cited from earlier work
[2] = target: myeloperoxidase (Homo sapiens) (UniProt P05164); experiment: SPR; conditions: cited from earlier work
[3] = target: myeloperoxidase (Homo sapiens) (UniProt P05164); conditions: cited from earlier work
[4] = target: myeloperoxidase (Homo sapiens) (UniProt P05164); conditions: cited from earlier work; remark: listed apart in the source
[5] = target: mature dimeric human leukocyte myeloperoxidase (human) (UniProt P05164); experiment: ITC; 10 μM MPO in the cell, 150 μM SPIN variant as titrant, 19 injections of 3 μl; 50 mM phosphate buffer pH 7.4 or pH 5; one-site binding model
[6] = target: biotinylated native human leukocyte myeloperoxidase (human) (UniProt P05164); experiment: SPR; Biacore T200; biotinylated native MPO reversibly immobilised on a CAP chip (Biotin CAPture kit) to 500 RU; SPIN variants injected, 2-64 nM (legend: 32-2 nM), single cycle kinetics; RT; PBS, 0.05% Tween 20, 0.1% BSA; two-state model for SPIN-aureus, 1:1 model for SPIN-truncated
[7] = target: mature dimeric human leukocyte myeloperoxidase (human) (UniProt P05164)
[8] = target: mature dimeric human leukocyte myeloperoxidase (human) (UniProt P05164); remark: listed apart in the source

SPIN-truncated CTD (from UniProt A0A0H3K703)
Kd [1]: 29.8 nM
Kd [2]: 35.1 nM

SPIN-truncated C-terminal domain (from UniProt A0A0H3K703)
Kd [3]: 10 nM

SPIN-aureus (from UniProt A0A0H3K703)
Kd [1]: 15.9 nM and 9.3 nM
Kd [2]: 11.8 nM
Kd [4]: 10 nM

B1: SPIN-truncated (domain or fragment)
chain: LEHELSYIDVLLDKNADQATKDNLRSYFADKGLHSIKDIINKAKQDGFDVSKYEHVK
Kd [5]: 5.9 nM
dH [5]: -17.4 kcal/mol
Kd [6]: 21 nM
koff [6]: 0.016 s⁻¹
kon [6]: 110000 M⁻¹ s⁻¹

B2: SPIN-aureus (Staphylococcal Peroxidase Inhibitor from Staphylococcus aureus) (natural protein)
chain: SQNGLVLHDDANFLEHELSYIDVLLDKNADQATKDNLRSYFADKGLHSIKDIINKAKQDGFDVSKYEHVK
Kd [6]: 0.005 nM
koff1 (two-state model, first step) [6]: 0.005 s⁻¹
koff2 (two-state model, second step) [6]: 3.5e-06 s⁻¹
kon1 (two-state model, first step) [6]: 590000 M⁻¹ s⁻¹
shift of the Tm of MPO by DSC, MPO with SPIN-aureus against MPO alone, pH 5 [7]: 5 °C
shift of the Tm of MPO by DSC, MPO with SPIN-aureus against MPO alone, pH 7.4 [7]: 1.5 °C
half maximal inhibition time IT50 of the bromination activity of MPO, first phase (incubation 0-5 min, ∼80% total inhibition) [8]: 2.4 s
half maximal inhibition time IT50 of the bromination activity of MPO, second phase (incubation 5-120 min) [8]: 24 min
inhibition of the bromination activity of MPO (MCD assay, pH 5) after preincubation with SPIN-aureus for 0 to 120 min [8]: 99.5%
